Assay [1] has as its target T1, human fibrinogen (human, UniProt P02671 20-629; P02675 31-491; P02679 27-437, limits assumed).
T1 construct: Bought (Sigma), coated on 96-well plates at 50 ug/ml in TBS pH 8.5; also called fibrinogen (Sigma) plate; fibrinogen (2)
T1 sequence (looked up) 1: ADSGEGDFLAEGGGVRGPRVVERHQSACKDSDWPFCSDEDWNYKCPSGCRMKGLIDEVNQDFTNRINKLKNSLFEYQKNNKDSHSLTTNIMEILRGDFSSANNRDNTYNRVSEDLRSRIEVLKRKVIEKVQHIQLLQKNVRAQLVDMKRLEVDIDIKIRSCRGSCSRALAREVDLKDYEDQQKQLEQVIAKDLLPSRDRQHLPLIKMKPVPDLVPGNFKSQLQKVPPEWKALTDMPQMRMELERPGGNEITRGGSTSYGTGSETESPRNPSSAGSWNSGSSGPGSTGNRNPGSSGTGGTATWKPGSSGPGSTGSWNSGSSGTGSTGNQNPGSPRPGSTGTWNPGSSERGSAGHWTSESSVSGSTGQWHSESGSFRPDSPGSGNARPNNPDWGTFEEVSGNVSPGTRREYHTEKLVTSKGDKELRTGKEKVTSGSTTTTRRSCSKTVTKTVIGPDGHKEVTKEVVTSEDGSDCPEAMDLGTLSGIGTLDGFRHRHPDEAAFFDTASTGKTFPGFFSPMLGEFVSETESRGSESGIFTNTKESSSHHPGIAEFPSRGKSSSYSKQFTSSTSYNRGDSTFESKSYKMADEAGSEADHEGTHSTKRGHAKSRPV
T1 sequence (looked up) 2: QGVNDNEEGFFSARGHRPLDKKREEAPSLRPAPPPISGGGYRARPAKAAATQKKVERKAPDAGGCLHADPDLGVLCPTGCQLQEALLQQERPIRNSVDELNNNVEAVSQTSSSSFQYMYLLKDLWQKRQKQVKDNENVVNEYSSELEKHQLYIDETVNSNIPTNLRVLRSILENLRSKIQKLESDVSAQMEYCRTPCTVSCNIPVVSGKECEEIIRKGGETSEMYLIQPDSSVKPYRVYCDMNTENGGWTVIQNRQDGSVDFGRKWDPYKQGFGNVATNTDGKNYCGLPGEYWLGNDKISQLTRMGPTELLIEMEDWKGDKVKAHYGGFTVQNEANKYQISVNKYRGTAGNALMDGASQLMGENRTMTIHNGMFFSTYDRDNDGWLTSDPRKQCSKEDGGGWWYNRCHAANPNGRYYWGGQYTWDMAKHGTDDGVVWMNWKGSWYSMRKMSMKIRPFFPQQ
T1 sequence (looked up) 3: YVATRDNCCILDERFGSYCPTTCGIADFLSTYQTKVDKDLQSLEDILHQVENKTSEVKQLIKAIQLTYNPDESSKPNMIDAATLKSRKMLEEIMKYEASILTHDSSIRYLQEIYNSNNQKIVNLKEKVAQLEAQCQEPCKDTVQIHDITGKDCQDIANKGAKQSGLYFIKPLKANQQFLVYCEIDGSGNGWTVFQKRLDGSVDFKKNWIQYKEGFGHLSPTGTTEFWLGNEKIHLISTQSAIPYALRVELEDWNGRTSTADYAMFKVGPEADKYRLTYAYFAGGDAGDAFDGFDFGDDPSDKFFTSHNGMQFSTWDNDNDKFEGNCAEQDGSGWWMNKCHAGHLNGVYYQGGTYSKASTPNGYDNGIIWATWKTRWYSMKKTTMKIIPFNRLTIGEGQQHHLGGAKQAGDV
Briefly: ELISA, hybridoma culture supernatant (undiluted) on fibrinogen plate; selection of the clone. For orientation: An ELISA detects its analyte on a solid surface through an enzyme-linked reagent.

Assay [2] has as its target T2, mouse fibrinogen (mouse, UniProt E9PV24 20-557; Q8K0E8 20-481; Q8VCM7 26-436, limits assumed).
T2 construct: also called fibrinogen (4)
T2 sequence (looked up) 1: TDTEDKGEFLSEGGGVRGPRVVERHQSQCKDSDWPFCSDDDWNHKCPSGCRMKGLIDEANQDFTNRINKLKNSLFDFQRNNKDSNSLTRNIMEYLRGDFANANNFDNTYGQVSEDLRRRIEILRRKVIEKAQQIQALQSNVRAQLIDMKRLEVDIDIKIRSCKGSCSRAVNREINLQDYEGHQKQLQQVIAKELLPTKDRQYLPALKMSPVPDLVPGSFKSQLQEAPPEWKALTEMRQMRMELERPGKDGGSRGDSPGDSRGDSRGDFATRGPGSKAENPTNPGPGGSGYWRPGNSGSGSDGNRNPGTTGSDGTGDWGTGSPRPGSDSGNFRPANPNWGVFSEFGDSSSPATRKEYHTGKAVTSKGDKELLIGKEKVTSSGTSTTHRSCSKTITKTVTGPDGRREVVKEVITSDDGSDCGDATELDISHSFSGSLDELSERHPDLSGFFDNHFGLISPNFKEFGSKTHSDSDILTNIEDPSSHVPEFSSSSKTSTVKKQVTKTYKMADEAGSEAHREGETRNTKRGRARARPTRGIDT
T2 sequence (looked up) 2: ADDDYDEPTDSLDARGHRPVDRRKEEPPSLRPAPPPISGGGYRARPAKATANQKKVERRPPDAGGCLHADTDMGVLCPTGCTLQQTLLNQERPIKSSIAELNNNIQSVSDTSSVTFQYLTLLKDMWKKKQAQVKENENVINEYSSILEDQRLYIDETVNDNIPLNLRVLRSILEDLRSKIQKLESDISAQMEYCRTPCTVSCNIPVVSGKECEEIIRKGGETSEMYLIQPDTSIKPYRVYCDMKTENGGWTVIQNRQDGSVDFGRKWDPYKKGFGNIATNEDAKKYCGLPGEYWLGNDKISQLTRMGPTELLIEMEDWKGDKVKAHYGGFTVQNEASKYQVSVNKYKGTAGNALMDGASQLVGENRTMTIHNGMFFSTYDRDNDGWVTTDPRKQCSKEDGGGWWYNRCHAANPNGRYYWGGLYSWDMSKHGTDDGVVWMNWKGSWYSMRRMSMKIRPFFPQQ
T2 sequence (looked up) 3: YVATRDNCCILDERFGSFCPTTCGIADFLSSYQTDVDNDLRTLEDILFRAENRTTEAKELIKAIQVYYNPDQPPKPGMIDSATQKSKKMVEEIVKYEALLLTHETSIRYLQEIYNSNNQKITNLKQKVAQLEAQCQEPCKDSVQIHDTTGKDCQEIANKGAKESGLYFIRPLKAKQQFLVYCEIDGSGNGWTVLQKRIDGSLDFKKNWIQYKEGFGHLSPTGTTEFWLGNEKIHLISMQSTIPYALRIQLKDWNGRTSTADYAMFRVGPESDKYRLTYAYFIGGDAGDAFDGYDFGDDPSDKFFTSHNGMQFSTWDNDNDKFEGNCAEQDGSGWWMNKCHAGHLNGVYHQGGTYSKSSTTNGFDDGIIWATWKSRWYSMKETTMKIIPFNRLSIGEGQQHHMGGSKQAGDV
The assay can be described thus: ELISA, hybridoma 102-10 culture supernatant on fibrinogen plate (Fig. 1C).

In assay [3] the target is T3, human fibrin (human, UniProt P02671 36-629; P02675 45-491; P02679 27-437, limits assumed).
T3 construct: Made on the plate: fibrinogen (Sigma) coated at 50 ug/ml, dried, then treated with 10 NIH U/ml human thrombin with 10 mM CaCl2 and 7 mM L-cysteine; also called fibrin plate; fibrin (1)
T3 sequence (looked up) 1: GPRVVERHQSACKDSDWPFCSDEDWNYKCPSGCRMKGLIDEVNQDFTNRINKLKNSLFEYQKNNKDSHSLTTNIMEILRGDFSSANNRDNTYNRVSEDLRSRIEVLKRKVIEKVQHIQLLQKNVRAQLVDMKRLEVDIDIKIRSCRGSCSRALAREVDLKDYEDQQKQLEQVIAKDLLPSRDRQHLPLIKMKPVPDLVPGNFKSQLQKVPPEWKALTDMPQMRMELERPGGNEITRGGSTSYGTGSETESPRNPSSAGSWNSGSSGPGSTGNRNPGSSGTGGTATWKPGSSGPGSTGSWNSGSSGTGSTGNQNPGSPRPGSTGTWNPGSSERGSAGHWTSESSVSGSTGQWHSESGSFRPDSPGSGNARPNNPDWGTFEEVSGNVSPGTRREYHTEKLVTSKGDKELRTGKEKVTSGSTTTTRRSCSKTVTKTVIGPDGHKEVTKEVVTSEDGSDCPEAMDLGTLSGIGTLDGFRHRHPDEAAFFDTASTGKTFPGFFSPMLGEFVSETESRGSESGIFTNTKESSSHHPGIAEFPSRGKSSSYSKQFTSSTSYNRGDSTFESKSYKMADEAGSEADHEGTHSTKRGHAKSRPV
T3 sequence (looked up) 2: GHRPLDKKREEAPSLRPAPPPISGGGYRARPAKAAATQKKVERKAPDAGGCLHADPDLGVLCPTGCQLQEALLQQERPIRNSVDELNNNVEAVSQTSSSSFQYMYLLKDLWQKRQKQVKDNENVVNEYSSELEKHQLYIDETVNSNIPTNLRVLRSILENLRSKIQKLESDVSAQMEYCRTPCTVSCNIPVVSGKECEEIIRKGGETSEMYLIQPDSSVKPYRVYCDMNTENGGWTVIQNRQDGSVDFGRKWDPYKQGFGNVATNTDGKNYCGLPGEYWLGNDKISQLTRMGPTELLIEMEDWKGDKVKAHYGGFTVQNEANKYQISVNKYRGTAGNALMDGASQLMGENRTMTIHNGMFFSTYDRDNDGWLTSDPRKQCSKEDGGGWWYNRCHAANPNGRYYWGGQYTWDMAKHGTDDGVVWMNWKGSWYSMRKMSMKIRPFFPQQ
T3 sequence (looked up) 3: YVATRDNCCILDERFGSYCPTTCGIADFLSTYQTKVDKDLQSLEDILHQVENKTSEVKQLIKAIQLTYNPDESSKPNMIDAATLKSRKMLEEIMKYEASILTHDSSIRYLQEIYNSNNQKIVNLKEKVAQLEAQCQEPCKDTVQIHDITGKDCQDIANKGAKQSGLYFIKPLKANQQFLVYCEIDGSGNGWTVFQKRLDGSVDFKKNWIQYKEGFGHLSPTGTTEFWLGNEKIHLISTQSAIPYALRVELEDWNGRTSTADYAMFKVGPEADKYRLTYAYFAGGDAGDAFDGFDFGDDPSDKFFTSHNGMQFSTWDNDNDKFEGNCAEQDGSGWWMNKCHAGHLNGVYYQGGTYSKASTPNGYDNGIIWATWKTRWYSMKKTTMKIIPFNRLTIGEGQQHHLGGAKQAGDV
The assay can be described thus: ELISA, hybridoma culture supernatant (undiluted) on fibrin plate; selection of the clone.

Assay [4] deals with T3, human fibrin. The assay can be described thus: ELISA, purified chimeric antibody on fibrin plate (Fig. 3).
For assay [5], the target named is T1, human fibrinogen. The assay can be described thus: ELISA, purified chimeric antibody on fibrinogen plate (Fig. 3).
Assay [6] has as its target T2, mouse fibrinogen. The description is as above.

B1: mouse anti-fibrin IgM antibody produced by hybridoma cell line 102-10 (accession number NITE BP-923) (antibody, V domains shown)
VH: QIQLVQSGPELKKPGETVKISCKASGYTFTNYGMNWVKQAPGKGLKWMGWINTYTGEATYADDFKGRFAFSLETSANTAYVQINNLKNEDTATYFCARLMDYWGQGTSVTVSS
VL: DIQMTQSPSSLSASLGGKVTITCKASQDINKYIAWFQHKPGKGPRLLIHYTSTLQPGIPSRFSGSGSGRDYSFSISNLEPEDLATYYCLQYDNLTWTFGGGTKLEIK
notes: Mouse IgM; Tested as hybridoma culture supernatant in ELISA; also called clone 102-10; mouse IgM antibody
Regarding B1, the binding result with human fibrinogen [1] was “no binding”; with mouse fibrinogen [2], “no binding”; in the assay with human fibrin [3], “binds”.

B2: human type anti-fibrin chimeric antibody (human type IgG clone 102-10Hu) (antibody, V domains shown)
VH: QIQLVQSGPELKKPGETVKISCKASGYTFTNYGMNWVKQAPGKGLKWMGWINTYTGEATYADDFKGRFAFSLETSANTAYVQINNLKNEDTATYFCARLMDYWGQGTSVTVSS
VL: DIQMTQSPSSLSASLGGKVTITCKASQDINKYIAWFQHKPGKGPRLLIHYTSTLQPGIPSRFSGSGSGRDYSFSISNLEPEDLATYYCLQYDNLTWTFGGGTKLEIK
notes: made in CHO cells, purified on Protein G and hydroxyapatite; They may include a leader peptide; no cleavage site is stated; also called human chimeric antibody; human chimeric anti-fibrin IgG
For the molecule B2, the results for the binding result with human fibrin [4], in the assay with human fibrinogen [5] and with mouse fibrinogen [6] were “binds”, “no binding” and “no binding”, respectively.
